# According to the supplement of paper PMC9170038:
# System: K4 kissing-loop RNA reporter
# Test: apparent KD of K4 kissing-loop reporter; higher = weaker reporter binding
# Settings: Eterna round: R107; input ligand: FMN 200 uM
# Method: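 RNA-MaP round R107: designed RNA switches with theophylline, tryptophan, arginine or FMN aptamers are transcribed on-chip within common flanks. They are titrated with a labelled K4 kissing-loop RNA reporter in RNA-MaP buffer (100 mM Tris pH 7.5, 80 mM KCl, 4 mM MgCl2), without ligand or with the indicated ligand. Median apparent KD per design.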
# 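Also: bound reporter read as fluorescence of individual clusters on recovered sequencing chips by microscopy, with normalized cluster intensities fitted with a binding model.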
row,Sequence,apparent KD of K4 kissing-loop reporter [nM]
1,GGCCCGGGCUCGGCCGCCACUCCCUCGUACCGCAAGGUAUGAUACCGAGUGAUGUUCGGUUGGAGGAGGACCGGGAGCCCGGGCC [#2 Exclusion - Tryptophan B Attempt #6 (HarryS)],116
2,AAAAUAAAUAGCAGUCACGGAGUGAUGUUCCGAGGACCGGUACGGCCGCCACUCGACCAGACAAAGUCUGGAGGCGGAGACUGCA [#SwitchBubble 20 #K4Early],166
3,AAUCUCGUCCUGGAUACCAGUCGCACGGUUUGUCAUGUCAGCCAGUGAUGUUGCCUGCAUGACCCUUGGCAGCCAUUCUAUGAAU [theeternabot_exclusion_KL_Theo_B_45],284
4,GCAGUGAUGUUGCUGAUGUGCAGUGGUAGUCGAGGACCGGUACGGCCGCCACUCGGUGAGAAUUUGUUAAUACAUCGAUAAGUGA [XVI],968
5,UGAUACCAGACUGAUACCAGCAGUGAUGUUGCUGAUAAGGGUAGAGUCAAAGACUCUACCUGCCCUUGGCAGCAGUCUGGUAUCU [TheoBX 14 #SwitchBubble #StaticStem],167
6,AAAUGACAAGUAAUAAAGAAAAGCGGCGAUACCAGUAAGAACGUAUACCCUUGGCAGCGCAUAUUAGAGUGAUGUUCUAAUCCGA [theeternabot_sameState_KL_Theo_A_25],129
7,AAUUUGGGUUCGGCCGCCACUCCAGUGAUGUUGGAUGGCGAAAUAAAGGCUAGACCAGGUUGCCGGAGGACCGGGAAUCCUGUAC [Qumabi],182
8,UAGUCCUAGUGAUGGUUAUCACGUGGUGGGCGAGGACCGGUACGGCCGCCACUCGACUAUGCAGUGAUGUUGCAAUCCGGACAAU [Exclusion - Tryptophan A (Freestyle 16)],319
9,AGGGUAAGGCGUUAACAUGACACCUGGGAAGGAGCGCGGUACACCGCAGGUAGGUCGCCCAGUGAUGUUGGGUGUAAGUAUGAGU [KL-XArg-A23],137
10,GAGAUAGAGGCGGCCGCCACUAGUGAUGUUAGUGAUGUUAGAUAGAGAAUAGAACAGAGAUAGGAUAGGACCGGGCCAGAUAGAG [Tryptophan B Exclusion; Euphoria Solution],69.4
11,AAUAAUCUAGGUGAUACCAGCUCAACAUGAGUGAUGUUCGUGAGCUAAUGUAGAGUUGAGAGCCCUUGGCAGCACCUAGAUAAUA [KL-SSTheoB7],698
12,CACCAUGAAUUCUCUAGGAGUGAUGUUUUUCGAGGACCGGUACGGCCGCCACUCGGACGAGGACCGUGGGAGCGGCGAAGCGGCU [?oegmullin],99.2
13,UCCGAGCUUAUUGAUACCAGUUCGGCGAGCUACUAGAGUGAUGUUCUUGUAAGCGUACACAACCCUUGGCAGCAAUAGAGGAGGU [theeternabot_sameState_KL_Theo_B_37],157
14,UCCUAGACUUAGCUAGGUAUAUAAUACGAUACCAGUCUAGAGAUAGACCCUUGGCAGCGUAGGCAGUGAUGUUGCCACUAGCUGA [Theo B SS t7a],97.6
15,GCCCUCUUAACGGCCGCCACUAUAUUUAUGAUCUCUAGUAAGUGAUGUUUACUCCGGCUUAUAGGUAGGACCGGGUUAUUAUCUU [theeternabot_sameState_KL_Trp_B_39],229
16,UAAUGGUAAGUGAUGUUUACCUGGAACGAUACCAGUCGCCAUGAGGACCCUUGGCAGCGUCACACAGCCUUCUAGUUGUGGUCUU [theeternabot_sameState_KL_Theo_A_46],418
17,UAUAUAGUGACGGCCGCCACUAUAUUAAUGUUUUUGUUAGAGUGAUGUUUUGUUUUUUAAUUUUAUAGGACCGGGUUAUAUGUUA [xnxmullin],275
18,ACGUGUCACUGAAGGAGCGUCUACCGAAUACGAGUGAUGUUCGUACACCACUGAUAUAGUGGACAGGUAGGUCGCAGUGAUACGU [Arg B Ex t3],120
19,CCUCUCCUUGAUAGUGAUGUUAUCAAGGACAAGGAUAUCAUCUCAAUGAGAAGGUGUCCUUGAUAACAUGGAGGUCUGAAACAGA [Omei KL FMN A Exc C v1],138
20,AAACAUCACUGGGAGUGAUGUUCUCAGUGACGAGGACCGGUACGGCCGCCACUCGCGAGAGAUAUAGUCAAGUAAUGACUGCAUU [Excl Tryptophan A V9],365
21,AAUGUAUACUGAAGGAGCGAGUAGUGGAAACAUAAACUCAAUGCGAGUGAUGUUCGCAGUACUCAGGUAGGUCGCAGUAAUGGUA [Exclusion Arginine B Gf 8],522

row,Sequence,apparent KD of K4 kissing-loop reporter [nM]
1,GCAAAGUGUCAUAUUAUCUAGCAGCUGCGAAAGGAUAUGAGAGUGCUCAGAAGGUUCUUGGCGGAGUGAUGUUCCGCGUAAAUGG [theeternabot_exclusion_KL_FMN_A_22],84.2
2,GGAUUUGAAAGUGAGUGAUGUUCAUGUUGUGAGGAUAUGUAGAGAUAUAGAAGGCACGUUUGUAUUUUUUUUGUGUGAGAUUAAA [Last Minute #1],81.5
3,UGUACCGAGUCAGGAUAUGGUAUACCGGAAACGGACCAGUGAUGUUGGAGGCGAAAGCCAUAAAAUCCAGAAGGGACUUGGUACU [FmnBS 19 #SwitchBubble #StaticStem #DoubleMagnetSystem],223
4,UUUUUGGAGAAUUAUAGUGAUGUUAUGAAGGAGGAUAUCUAAAGAUGGAGAAGGUUUAAUAGUUAAGGGAUGGAGGGUGGGUGGG [ExFMNA.Q],372
5,AAGUUUUAUAAACUCAUGGUUUCGACAGAUACCAGCUUCGAGAGGAGCCCUUGGCAGCUGCAUGAGUGAUGUUCAUGUACGAAGA [KL-XTheoA8],377
6,AGGUUUUGAUUAGGAUAUGCACUGAGGAGGAGAAUAUAGUGAUGUUAUAUAAGAGGAAGUAGUAGAGUAGAAGGGAUUGAGGUUU [SSFMNB.S],208
7,CGUUUAUAGCAGGAUACCAGUACCCAUAAAGUACGUUAAUAGUAGAGUGAUGUUCUAAAGUACCCUUGGCAGCUUCCCGUGACUG [ExTheophylB.U],65.3
8,AGGGAUGUUAAAGGAUAUAGAAAGUGAUGUUAGAAAGUGAGUGAUGUUGAUGUAAGUGAUGAUAUGUUAGAAGGUUAACAAAACG [abc],212
9,CGCGCCCGGCCGGAUACCAGUGACCCGCUGGGAACCGCGGGCCCAGAGUGAUGUUCGGGACACCCUUGGCAGCCGCCUGGGCGUG [#2 Same State - Theophylline B Attempt #5 (HarryS)],1110
10,GGAGUCCCGUUAGAUUGUGUAGAUACAAGACGAGGACCGGUACGGCCGCCACUCGCCAUCGUCCAGUGAUGUUGGGCGUCACGGG [theeternabot_sameState_KL_Trp_A_30],262
11,GCCGUACGCAUGGAUACCAGCACAGGCCGAAGUGAUGUUUCGUGCGUAUAUUUGUGCUACUGCCCUUGGCAGCCAUGCGUACGGC,75.8
12,CCGAUACAUUAUUCUACGGCCGAGAGUGAUACCAGCCAUAUUUAUGGCCCUUGGCAGCGCAGAUGCAGUGAUGUUGCAUACUUAC [Same State Theophylline A GF 19],85.7
13,GGUCGAGUGAUGUUCGAUGUUAUGCAUUCAGAGGAUAUAGGAUUAGCUAGAAGGCUGAAUCAAUCUUCGAGUGAUGUUCGAGGAU [Same State FMN A GF 9],133
14,AACUUAAUUUAUAAGCAGUGAUGUUGCUCACGAGGACCGGUACGGCCGCCACUCGAUCGGACUUAGGUCUUCAAUUAUUUCAUUA [JR_ExcTryptoA_Sub017],149
15,GAUUGAGUGAUGUUCAAUUAGUAUCUAGAUACCAGAAUGUCUACCUUCCCUUGGCAGCUACUGACGGUGAUCAUUUCGCGCGCAG [theeternabot_sameState_KL_Theo_A_19],235
16,GGAUCCACCAGUGAUGUUGGAGAAAACUCCAAGGAUAUGACGAAAGUCAGAAGGUGGUAGACUGGACAAAGUCCGGUGGGAUCCA [FmnA10 G78],661
17,UUUUUAUAAGAGGAUACCAGUACAAAUAAAGUACAUUAAUAGUAGAGUGAUGUUCUAAAGUACCCUUGGCAGCUUAGAGUAAGUU [ExTheophylB.C],161
18,UUCGAUCAGUGAUGUUGAUCAAUAGUCGAAGGAGCGCUAUAGAUAGCAGGUAGGUCGCGACUACAAGGUGUUAAGACACCUCGAA [Arg A SS t9],505
19,GUAUUGUGAAUGGAUACCAGACACCCGAGUGAUGUUCGGAGCAGAGUGAUGUUCUAAUAAGUCCCUUGGCAGCCGGAAGCAGCCG [Same State Theophylline B GF 3],223
20,AGUUCUUGCCGAAGGAGCGAGGCAGAGUGAUGUUCUGCAGAGGUCGAAAGACCUCAACUGCCUCAGGUAGGUCGCGGCAUGAACA [Omei KL Arginine B Exc A v6],291
21,CUGCAACAUAACUUCUUCGUCCUAGAAGACUAGGAUAUCAGGAAACUGAGAAGGAGUCUCUGCAGUGAUGUUGCAGUUAGGACGA [KL-SSFMN-A7],139

# Same assay, conditions: Eterna round: R107; input ligand: arginine 13.2 mM
row,Sequence,apparent KD of K4 kissing-loop reporter [nM]
1,GGCCCGGGCUCGGCCGCCACUCCCUCGUACCGCAAGGUAUGAUACCGAGUGAUGUUCGGUUGGAGGAGGACCGGGAGCCCGGGCC [#2 Exclusion - Tryptophan B Attempt #6 (HarryS)],118
2,AAAAUAAAUAGCAGUCACGGAGUGAUGUUCCGAGGACCGGUACGGCCGCCACUCGACCAGACAAAGUCUGGAGGCGGAGACUGCA [#SwitchBubble 20 #K4Early],176
3,AAUCUCGUCCUGGAUACCAGUCGCACGGUUUGUCAUGUCAGCCAGUGAUGUUGCCUGCAUGACCCUUGGCAGCCAUUCUAUGAAU [theeternabot_exclusion_KL_Theo_B_45],230
4,GCAGUGAUGUUGCUGAUGUGCAGUGGUAGUCGAGGACCGGUACGGCCGCCACUCGGUGAGAAUUUGUUAAUACAUCGAUAAGUGA [XVI],558
5,UGAUACCAGACUGAUACCAGCAGUGAUGUUGCUGAUAAGGGUAGAGUCAAAGACUCUACCUGCCCUUGGCAGCAGUCUGGUAUCU [TheoBX 14 #SwitchBubble #StaticStem],146
6,AAAUGACAAGUAAUAAAGAAAAGCGGCGAUACCAGUAAGAACGUAUACCCUUGGCAGCGCAUAUUAGAGUGAUGUUCUAAUCCGA [theeternabot_sameState_KL_Theo_A_25],174
7,AAUUUGGGUUCGGCCGCCACUCCAGUGAUGUUGGAUGGCGAAAUAAAGGCUAGACCAGGUUGCCGGAGGACCGGGAAUCCUGUAC [Qumabi],152
8,UAGUCCUAGUGAUGGUUAUCACGUGGUGGGCGAGGACCGGUACGGCCGCCACUCGACUAUGCAGUGAUGUUGCAAUCCGGACAAU [Exclusion - Tryptophan A (Freestyle 16)],411
9,AGGGUAAGGCGUUAACAUGACACCUGGGAAGGAGCGCGGUACACCGCAGGUAGGUCGCCCAGUGAUGUUGGGUGUAAGUAUGAGU [KL-XArg-A23],109
10,GAGAUAGAGGCGGCCGCCACUAGUGAUGUUAGUGAUGUUAGAUAGAGAAUAGAACAGAGAUAGGAUAGGACCGGGCCAGAUAGAG [Tryptophan B Exclusion; Euphoria Solution],60.8
